These results are taken from paper PMC11565788 (bioRxiv, 2024).

First the molecules themselves.
B1: AP1σ3-His6 (full-length human AP1S3 with C-terminal His6 tag) (natural protein, UniProt Q96PC3-1 1-154, looked up)
chain: MIHFILLFSRQGKLRLQKWYITLPDKERKKITREIVQIILSRGHRTSSFVDWKELKLVYKRYASLYFCCAIENQDNELLTLEIVHRYVELLDKYFGNVCELDIIFNFEKAYFILDEFIIGGEIQETSKKIAVKAIEDSDMLQEVSTVSQTMGER
B2: AAGAB psGD (residues 2-177), tagless, coexpressed and co-purified with AP1σ3-His6 (domain or fragment, human, UniProt Q6PD74 2-177, looked up)
chain: AAGVPCALVTSCSSVFSGDQLVQHILGTEDLIVEVTSNDAVRFYPWTIDNKYYSADINLCVVPNKFLVTAEIAESVQAFVVYFDSTQKSGLDSVSSWLPLAKAWLPEVMILVCDRVSEDGINRQKAQEWCIKHGFELVELSPEELPEEDDDFPESTGVKRIVQALNANVWSNVVMK

The target of experiment [1] is B2. Nature of the experiment: crystal structure.
The target in experiment [2] is B1. Nature of the experiment: SEC. (In general: SEC sorts molecules by how far they enter the pores of the column.)

With B1, the binding result in experiment [1] is given as “binds”.

Usually stoichiometry N stands for a count of units in the complex or per binding partner. Turning to B2, the “stoichiometry N” value in experiment [2] worked out at 1.
